Drawing on patent EP1680442B1 (Bioincept, LLC., dated 2011), this text covers IC50 for one molecule.

Ends that are not written are not given here.

In this assay the target is T1, AbPIF-1(15).
T1 construct: also called AbPIP-1(15); PIF-1 antibody
In words: competition ELISA, pAb coated at 4.5 ug/ml, unlabelled against biotinylated peptide. For orientation: In an ELISA, binding on a coated surface is turned into a signal by an enzyme label.

B1: sPIF-1(15) (peptide)
peptide: MVRIKPGSANKPSDD
modifications: not fully specified; also: flow cytometry form: FITC on N-terminus via β-alanine spacer
notes: Synthetic 15-residue peptide; In flow cytometry it carried FITC on the N-terminus through a b-alanine spacer; also called synthetic PIF-1; FITC sPIF-1(15)
Usually IC50 stands for the concentration that gives 50% inhibition. A low value points to greater potency in that assay. In turn, B1 showed an IC50 of 0.5 to 0.7 nM.
